The results in this text go back to US20040132029, “Method of error reduction in nucleic acid populations” (published 2004).

The target of the data set is T1, MutS (MutSt) (UniProt Q56215 Q56215:1-811).
T1 sequence: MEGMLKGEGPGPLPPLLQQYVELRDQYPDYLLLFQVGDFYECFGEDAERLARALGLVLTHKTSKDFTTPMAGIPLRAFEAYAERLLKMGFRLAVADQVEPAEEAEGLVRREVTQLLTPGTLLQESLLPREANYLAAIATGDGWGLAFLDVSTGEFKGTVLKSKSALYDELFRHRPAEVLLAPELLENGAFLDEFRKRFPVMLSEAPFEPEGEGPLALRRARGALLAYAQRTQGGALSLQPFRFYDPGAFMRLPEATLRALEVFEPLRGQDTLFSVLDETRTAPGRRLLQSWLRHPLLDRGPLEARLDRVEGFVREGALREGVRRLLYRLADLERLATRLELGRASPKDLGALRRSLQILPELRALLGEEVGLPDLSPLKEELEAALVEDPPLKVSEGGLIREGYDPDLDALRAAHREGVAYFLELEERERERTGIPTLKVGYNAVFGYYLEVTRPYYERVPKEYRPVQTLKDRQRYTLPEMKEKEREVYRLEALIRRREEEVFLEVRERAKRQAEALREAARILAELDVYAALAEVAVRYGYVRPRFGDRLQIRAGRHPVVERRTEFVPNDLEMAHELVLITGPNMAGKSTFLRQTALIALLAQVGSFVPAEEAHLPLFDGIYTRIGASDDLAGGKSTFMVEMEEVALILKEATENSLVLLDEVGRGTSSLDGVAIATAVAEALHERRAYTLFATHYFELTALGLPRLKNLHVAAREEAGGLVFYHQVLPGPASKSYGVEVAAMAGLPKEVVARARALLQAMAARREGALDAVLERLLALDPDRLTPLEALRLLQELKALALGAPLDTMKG
Put plainly: EMSA; 10 mM Tris-HCl pH 8.8, 5 mM MgCl2, 0.1% Triton X-100, 37 C; preferred over wt; tenfold unlabeled del20 competes, proteinase K removes shift. As to conditions: tags: Epicenter Technologies, Madison, Wis; label: 5' fluorescein on anti-sense strand; single unpaired base (deletion at position 20 of anti-sense). The protocol: In a typical reaction 80 pmols of unlabeled sense strand were mixed with 40 pmols of Cy5 labeled anti-sense strand and 40 pmols of fluorescein labeled mutant strand (del20 or C>A) in 1× Muts buffer ( 10 mM Tris-HCl pH 8.8, 5 mM MgCl₂, 0.1% TritonX-100). The mixture was annealed in a thermocycler after being first denatured at 95° C. for 5 minutes. The mixture was then cooled at 0.2° C./sec until temperature reaches 25° C. The duplex DNA thus created is illustrated in FIG. 5.
2 or 6 μg of MutSₜ protein (Epicenter Technologies, Madison, Wis.) was added to the annealed oligonucleotides. The mixture was then incubated at 37° C. for 30 minutes.
For orientation: A gel shift assay detects complexes by their altered migration in electrophoresis.

B1: GFPuv 351-390 del20 heteroduplex (dsDNA)
DNA 1: GTTAATGGGCACAAATTTTCTGTCAGTGGAGAGGGTGAAG
DNA 2: CTTCACCCTCTCCACTGACGAAAATTTGTGCCCATTAAC
As for B1, the binding result is “binds”.
